Measured values from PMC4519933, “Crystal Structure of a Hidden Protein, YcaC, a Putative Cysteine Hydrolase from Pseudomonas aeruginosa, with and without an Acrylamide Adduct” (International Journal of Molecular Sciences, 2015).

Key:
[1] = molecular target: the molecule itself; assay: crystal structure; crystal form I, space group C2, 2.34 Å; 9 mg/mL SeMet PlcHR2 preparation in 50 mM NaCl, 50 mM Tris-HCl pH 7.4, 0.1 mM TCEP; reservoir 26% PEG 3350, 400 mM (NH4)2SO4, 70 mM bis-Tris-HCl pH 6.75, 2,5-hexanediol additive; eight chains in the asymmetric unit
[2] = molecular target: the molecule itself; assay: crystal structure; crystal form II, space group P21, 2.56 Å; 5.3 mg/mL SeMet PlcHR2 preparation in 50 mM NaCl, 5 mM MgCl2, 50 mM Tris-HCl pH 7.4, 0.1 mM TCEP; reservoir 20% PEG 3350, 200 mM Na malonate, 100 mM MES-NaOH pH 6.75; eight chains in the asymmetric unit

Protein	stoichiometry N [1]	stoichiometry N [2]
Pseudomonas aeruginosa YcaC, crystal form I (Cys118 linked to propanamide) (enzyme, P. aeruginosa (endogenous in PADD1976), UniProt Q9I4D6 2-205, looked up, Cys118 linked to a propanamide (acrylamide adduct); bacteria grown in minimal media with L-selenomethionine (SeMet), monomer 205 residues, 22.5 kDa; the N-formylmethionine appears to have been cleaved off; residues 204 and 205 disordered in the crystal; Not cloned: crystallised as a contaminant of a SeMet PlcHR2 preparation; identity found by molecular replacement and side chain densities; also called Pa YcaC; PA1202) SFTYKRLDKNDAAVLFVDHQAGLLSLVRDFSPDEFKNNVLALADIARFFNLPTILTTSFEDGPNGPLVPELKEMFPQAPYIARPGNINAWDNEDFVKAVKATGKKQLIIAGVVTDVCVAFPTLSALEEGFDVFVVTDASGTFNPVVRDAAWARMTAAGAQLMNWFSVGCELHRDWRNDIEGFGAILGGHLPAYANLIQSFGTKK	8	–
Pseudomonas aeruginosa YcaC, crystal form II (Cys118 as S-mercaptocysteine) (enzyme, P. aeruginosa (endogenous in PADD1976), UniProt Q9I4D6 2-205, looked up, Cys118 covalently modified to S-mercaptocysteine; bacteria grown in minimal media with L-selenomethionine (SeMet), monomer 205 residues, 22.5 kDa; the N-formylmethionine appears to have been cleaved off; residues 204 and 205 disordered in the crystal; Same protein and preparation route as m1; differs in the modification of Cys118 seen in the crystal; also called Pa YcaC; PA1202) SFTYKRLDKNDAAVLFVDHQAGLLSLVRDFSPDEFKNNVLALADIARFFNLPTILTTSFEDGPNGPLVPELKEMFPQAPYIARPGNINAWDNEDFVKAVKATGKKQLIIAGVVTDVCVAFPTLSALEEGFDVFVVTDASGTFNPVVRDAAWARMTAAGAQLMNWFSVGCELHRDWRNDIEGFGAILGGHLPAYANLIQSFGTKK	–	8
